{"source": "paper PMC9352680", "about": "“A comprehensive thermodynamic model for RNA binding by the Saccharomyces cerevisiae Pumilio protein PUF4”", "binders": {"B1": {"name": "Id_ii_S2_P5E.3_K5.2_C5.2_H5.2_A5.1_F5.1_T5.2_[T11A]_[A12C] (ssRNA)", "RNA": "UUUGAUUAAUAUGAUAUCGUUCUUUCUCUUAUAUUAUUAACUUCUUUCUCGAUAUCAUAUUAAUCUUU"}, "B2": {"name": "Id_ii_S2_P5E.3_K5.2_C5.2_[T-1C]_H5.2_A5.1_F5.1_T5.2_[T11C]_[A12G] (ssRNA)", "RNA": "B1 RNA with U29C, A40C, C41G"}, "B3": {"name": "Id_ii_S2_P5E.3_K5.2_C5.2_[T-1A]_H5.2_A5.1_F5.1_T5.2_[T11A]_[A12G] (ssRNA)", "RNA": "B1 RNA with U29A, C41G"}, "B4": {"name": "Id_ii_S2_P5E.3_K5.2_C5.2_[T-1C]_H5.2_A5.1_F5.1_T5.2_[T11A]_[A12T] (ssRNA)", "RNA": "B1 RNA with U29C, C41U"}, "B5": {"name": "Id_ii_S2_P5E.3_K5.2_C5.2_H5.2_A5.1_F5.1_T5.2_[T11C] (ssRNA)", "RNA": "B1 RNA with A40C, C41A"}, "B6": {"name": "Id_ii_S2_P5E.3_K5.2_C5.2_[T-1G]_H5.2_A5.1_F5.1_T5.2_[T11A]_[A12T] (ssRNA)", "RNA": "B1 RNA with U29G, C41U"}, "B7": {"name": "Id_ii_S2_P5E.4_K5.3_C5.2_[C-2G]_[T-1C]_H5.3_A5.1_F5.1_T5.2_[A12C] (ssRNA)", "RNA": "B1 RNA with C28G, U29C, U30A, A31C, U32A, A33C, A40U"}, "B8": {"name": "Id_ii_S2_P5E.4_K5.3_C5.2_[C-2G]_H5.3_A5.1_F5.1_T5.2_[T11C]_[A12T] (ssRNA)", "RNA": "B1 RNA with C28G, U30A, A31C, U32A, A33C, A40C, C41U"}, "B9": {"name": "Id_ii_S2_P5E.3_K5.2_C5.2_[T-1G]_H5.2_A5.1_F5.1_T5.2_[A12C] (ssRNA)", "RNA": "B1 RNA with U29G, A40U"}, "B10": {"name": "Id_ii_S2_P5E.3_K5.2_C5.2_[C-2A]_H5.2_A5.1_F5.1_T5.2_[T11C] (ssRNA)", "RNA": "B1 RNA with C28A, A40C, C41A"}, "B11": {"name": "Id_ii_S2_P5E.3_K5.2_C5.2_[T-1A]_H5.2_A5.1_F5.1_T5.2_[T11C]_[A12C] (ssRNA)", "RNA": "B1 RNA with U29A, A40C"}, "B12": {"name": "Id_ii_S2_P5E.4_K5.3_C5.2_[C-2G]_[T-1C]_H5.3_A5.1_F5.1_T5.2_[T11C] (ssRNA)", "RNA": "B1 RNA with C28G, U29C, U30A, A31C, U32A, A33C, A40C, C41A"}, "B13": {"name": "Id_ii_S2_P5E.3_K5.2_C5.2_[T-1A]_H5.2_A5.1_F5.1_T5.2_[T11G]_[A12C] (ssRNA)", "RNA": "B1 RNA with U29A, A40G"}, "B14": {"name": "Id_ii_S2_P5E.4_K5.3_C5.2_[C-2G]_[T-1C]_H5.3_A5.1_F5.1_T5.2_[T11C]_[A12G] (ssRNA)", "RNA": "B1 RNA with C28G, U29C, U30A, A31C, U32A, A33C, A40C, C41G"}, "B15": {"name": "Id_ii_S2_P5E.3_K5.2_C5.2_[C-2A]_H5.2_A5.1_F5.1_T5.2_[A12T] (ssRNA)", "RNA": "B1 RNA with C28A, A40U, C41U"}, "B16": {"name": "Id_ii_S2_P5E.3_K5.2_C5.2_[T-1C]_H5.2_A5.1_F5.1_T5.2_[T11A]_[A12C] (ssRNA)", "RNA": "B1 RNA with U29C"}, "B17": {"name": "Id_ii_S2_P5E.3_K5.2_C5.2_[T-1G]_H5.2_A5.1_F5.1_T5.2_[T11G]_[A12T] (ssRNA)", "RNA": "B1 RNA with U29G, A40G, C41U"}, "B18": {"name": "Id_ii_S2_P5E.3_K5.2_C5.2_[T-1G]_H5.2_A5.1_F5.1_T5.2_[A12T] (ssRNA)", "RNA": "B1 RNA with U29G, A40U, C41U"}, "B19": {"name": "Id_ii_S2_P5E.3_K5.2_C5.2_H5.2_A5.1_F5.1_T5.2_[T11A]_[A12T] (ssRNA)", "RNA": "B1 RNA with C41U"}, "B20": {"name": "Id_ii_S2_P5E.3_K5.2_C5.2_[T-1A]_H5.2_A5.1_F5.1_T5.2_[T11C] (ssRNA)", "RNA": "B1 RNA with U29A, A40C, C41A"}, "B21": {"name": "Id_ii_S2_P5E.3_K5.2_C5.2_H5.2_A5.1_F5.1_T5.2_[A12T] (ssRNA)", "RNA": "B1 RNA with A40U, C41U"}, "B22": {"name": "Id_ii_S2_P5E.3_K5.2_C5.2_[T-1C]_H5.2_A5.1_F5.1_T5.2_[A12T] (ssRNA)", "RNA": "B1 RNA with U29C, A40U, C41U"}, "B23": {"name": "Id_ii_S2_P5E.4_K5.3_C5.2_[C-2G]_H5.3_A5.1_F5.1_T5.2_[T11A]_[A12C] (ssRNA)", "RNA": "B1 RNA with C28G, U30A, A31C, U32A, A33C"}, "B24": {"name": "Ia_S1_P5E.1_K5.1_C5.1_H5.1_[A4C]_A5.1_F5.1_T5.1 (ssRNA)", "RNA": "UCUCUUUGUCUUAUUAUCUCUU"}, "B25": {"name": "Ib_S1_P5E.1_K5.1_C5.1_H5.1_A5.1_[T5A]_F5.1_[T9G]_T5.1 (ssRNA)", "RNA": "UCUCUUUGUAAUAUGAUCUCUU"}, "B26": {"name": "Ic_S1_P3E.1_K3.1_C3.1_H3.1_A3.1_F3.1_[A8T]_T3.1 (ssRNA)", "RNA": "UCUCUUUGUAUAUUUCUCUU"}, "B27": {"name": "Ib_S1_P5E.1_K5.1_C5.1_H5.1_A5.1_[T5C]_F5.1_[T9G]_T5.1 (ssRNA)", "RNA": "UCUCUUUGUACUAUGAUCUCUU"}, "B28": {"name": "Ic_S1_P5E.1_K5.1_C5.1_H5.1_A5.1_[T5C]_F5.1_[T9C]_T5.1 (ssRNA)", "RNA": "UCUCUUUGUACUAUCAUCUCUU"}, "B29": {"name": "Ib_S1_P5E.1_K5.1_C5.1_H5.1_A5.1_[A7T]_F5.1_[T8C]_T5.1 (ssRNA)", "RNA": "UCUCUUUGUAUUUCUAUCUCUU"}}, "target": "T1, PUF4 RNA-binding domain (Saccharomyces cerevisiae, UniProt P25339 537-888)", "T1 sequence": "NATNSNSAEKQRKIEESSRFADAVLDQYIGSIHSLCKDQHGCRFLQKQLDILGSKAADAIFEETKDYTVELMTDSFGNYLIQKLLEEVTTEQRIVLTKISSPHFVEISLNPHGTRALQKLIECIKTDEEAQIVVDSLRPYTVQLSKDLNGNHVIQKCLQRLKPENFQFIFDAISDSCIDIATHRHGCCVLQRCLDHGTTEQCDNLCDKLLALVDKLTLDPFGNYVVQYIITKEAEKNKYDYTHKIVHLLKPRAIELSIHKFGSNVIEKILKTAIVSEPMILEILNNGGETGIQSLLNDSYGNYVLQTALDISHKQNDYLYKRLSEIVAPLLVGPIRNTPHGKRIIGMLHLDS", "assay": "Mg; RNA-MaP; 20 mM Na-HEPES pH 7.4, 30 mM KOAc, 0.75 mM MgCl2, 0.1% Tween-20, 5% glycerol, 0.1 mg/mL BSA, 2 mM DTT; 25 C; 0.0125-409.6 nM protein", "settings": "tags: N-His6-TEV cleaved; C-SNAP kept, Cy3B-labelled; label: tethered on chip by stalled RNA polymerase", "note": "Numbering of substitutions follows the chain as printed. Names may count otherwise."}
{"binder": "B1", "values": [{"measurement": "Kd", "value": 230, "unit": "nM"}]}
{"binder": "B2", "values": [{"measurement": "Kd", "value": 392, "unit": "nM"}]}
{"binder": "B3", "values": [{"measurement": "Kd", "value": 1200, "unit": "nM"}]}
{"binder": "B4", "values": [{"measurement": "Kd", "value": 138, "unit": "nM"}]}
{"binder": "B5", "values": [{"measurement": "Kd", "value": 103, "unit": "nM"}]}
{"binder": "B6", "values": [{"measurement": "Kd", "value": 12.1, "unit": "nM"}]}
{"binder": "B7", "values": [{"measurement": "Kd", "value": 359, "unit": "nM"}]}
{"binder": "B8", "values": [{"measurement": "Kd", "value": 11, "unit": "nM"}]}
{"binder": "B9", "values": [{"measurement": "Kd", "value": 28.4, "unit": "nM"}]}
{"binder": "B10", "values": [{"measurement": "Kd", "value": 207, "unit": "nM"}]}
{"binder": "B11", "values": [{"measurement": "Kd", "value": 69.4, "unit": "nM"}]}
{"binder": "B12", "values": [{"measurement": "Kd", "value": 729, "unit": "nM"}]}
{"binder": "B13", "values": [{"measurement": "Kd", "value": 112, "unit": "nM"}]}
{"binder": "B14", "values": [{"measurement": "Kd", "value": "> 2300", "unit": "nM"}]}
{"binder": "B15", "values": [{"measurement": "Kd", "value": 269, "unit": "nM"}]}
{"binder": "B16", "values": [{"measurement": "Kd", "value": 108, "unit": "nM"}]}
{"binder": "B17", "values": [{"measurement": "Kd", "value": 38.1, "unit": "nM"}]}
{"binder": "B18", "values": [{"measurement": "Kd", "value": 11.9, "unit": "nM"}]}
{"binder": "B19", "values": [{"measurement": "Kd", "value": 234, "unit": "nM"}]}
{"binder": "B20", "values": [{"measurement": "Kd", "value": 166, "unit": "nM"}]}
{"binder": "B21", "values": [{"measurement": "Kd", "value": 110, "unit": "nM"}]}
{"binder": "B22", "values": [{"measurement": "Kd", "value": 79.4, "unit": "nM"}]}
{"binder": "B23", "values": [{"measurement": "Kd", "value": 2.19, "unit": "nM"}]}
{"binder": "B24", "values": [{"measurement": "Kd", "value": 38.3, "unit": "nM"}]}
{"binder": "B25", "values": [{"measurement": "Kd", "value": 22.3, "unit": "nM"}]}
{"binder": "B26", "values": [{"measurement": "Kd", "value": 4.59, "unit": "nM"}]}
{"binder": "B27", "values": [{"measurement": "Kd", "value": 13.2, "unit": "nM"}]}
{"binder": "B28", "values": [{"measurement": "Kd", "value": 17.8, "unit": "nM"}]}
{"binder": "B29", "values": [{"measurement": "Kd", "value": 6.46, "unit": "nM"}]}
